Consider 1 molecule from PMC10659161, “Cryo-electron tomography reveals the binding and release states of the major adhesion complex from Mycoplasma genitalium” (PLOS Pathogens, 2023).

The target in the assay is T1, P140 (Mycoplasma genitalium, UniProt P20796 59-1444).
T1 construct: P140 of the nap particle adhesion complex, Mycoplasma genitalium G37; endogenous and not truncated, with stalk, transmembrane helix and intracellular region (residues up to 1444 are spoken of); The same endogenous protein was also studied in the nap particle purified from M. genitalium; that purification is described in an earlier publication of the authors; also called P140 adhesin of the nap …
T1 sequence: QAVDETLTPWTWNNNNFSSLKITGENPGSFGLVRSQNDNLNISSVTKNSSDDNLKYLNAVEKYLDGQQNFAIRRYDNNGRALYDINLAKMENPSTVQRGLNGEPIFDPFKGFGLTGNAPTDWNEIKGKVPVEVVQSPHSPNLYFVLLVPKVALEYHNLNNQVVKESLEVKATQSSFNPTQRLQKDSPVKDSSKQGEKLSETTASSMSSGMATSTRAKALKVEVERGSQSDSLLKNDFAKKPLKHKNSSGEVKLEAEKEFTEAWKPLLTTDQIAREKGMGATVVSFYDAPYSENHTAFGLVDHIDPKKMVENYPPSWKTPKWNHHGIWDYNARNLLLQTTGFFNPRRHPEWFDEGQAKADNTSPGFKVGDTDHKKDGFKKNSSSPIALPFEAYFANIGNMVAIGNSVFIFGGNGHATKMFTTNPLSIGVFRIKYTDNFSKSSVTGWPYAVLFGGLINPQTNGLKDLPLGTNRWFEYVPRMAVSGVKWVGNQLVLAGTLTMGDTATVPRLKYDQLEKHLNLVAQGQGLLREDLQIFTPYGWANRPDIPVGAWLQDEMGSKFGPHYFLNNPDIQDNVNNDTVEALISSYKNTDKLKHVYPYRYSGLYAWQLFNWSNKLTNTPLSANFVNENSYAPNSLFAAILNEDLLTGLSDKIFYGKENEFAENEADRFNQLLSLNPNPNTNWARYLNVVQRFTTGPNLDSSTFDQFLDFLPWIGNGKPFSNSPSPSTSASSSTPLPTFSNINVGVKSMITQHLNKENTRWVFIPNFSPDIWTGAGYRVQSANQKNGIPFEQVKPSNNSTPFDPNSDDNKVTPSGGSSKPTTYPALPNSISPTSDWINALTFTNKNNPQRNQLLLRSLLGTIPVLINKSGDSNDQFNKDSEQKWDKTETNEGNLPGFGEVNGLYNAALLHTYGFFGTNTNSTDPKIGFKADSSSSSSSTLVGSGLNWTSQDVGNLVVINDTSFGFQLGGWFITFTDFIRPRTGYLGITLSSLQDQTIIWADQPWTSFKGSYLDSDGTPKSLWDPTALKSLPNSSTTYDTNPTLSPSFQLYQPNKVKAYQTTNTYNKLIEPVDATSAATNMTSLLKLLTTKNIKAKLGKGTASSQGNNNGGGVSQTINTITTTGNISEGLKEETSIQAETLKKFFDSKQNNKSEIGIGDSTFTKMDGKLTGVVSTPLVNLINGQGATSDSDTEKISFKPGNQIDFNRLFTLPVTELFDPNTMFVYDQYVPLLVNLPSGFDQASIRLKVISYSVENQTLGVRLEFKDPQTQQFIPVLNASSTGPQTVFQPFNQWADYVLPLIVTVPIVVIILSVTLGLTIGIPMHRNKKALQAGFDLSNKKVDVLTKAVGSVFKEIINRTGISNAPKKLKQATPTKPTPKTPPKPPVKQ
As to the kind of experiment: cryo-EM structure; single-particle cryo-EM of the isolated nap particle purified from M. genitalium, with and without soaking in 10 mM 6'-SL (75 mM Tris-HCl pH 7.4, 400 mM NaCl, 5% glycerol, 0.5% octylglucoside); heterodimer classes at 3.3 and 3.7 Å, tetramer classes at 8.3, 7.3 and 7.7 Å. Conditions: both partners purified.

B1: P110 (natural protein)
chain: NTFLVKEDSKNVTAYTPFATPITDSKSDLVSLAQLDSSYQIADQTIHNTNLFVLFKSRDVKVKYESSGSNNISFDSTSQGEKPSYVVEFTNSTNIGIKWTMVKKYQLDVPNVSSDMNQVLKNLILEQPLTKYTLNSSLAKEKGKTQREVHLGSGQANQWTSQRNQHDLNNNPSPNASTGFKLTTGNAYRKLSESWPIYEPIDGTKQGKGKDSSGWSSTEENEAKNDAPSVSGGGSSSGTFNKYLNTKQALESIGILFDDQTPRNVITQLYYASTSKLAVTNNHIVVMGNSFLPSMWYWVVERSAQENASNKPTWFANTNLDWGEDKQKQFVENQLGYKETTSTNSHNFHSKSFTQPAYLISGIDSVNDQIIFSGFKAGSVGYDSSSSSSSSSSSSTKDQALAWSTTTSLDSKTGYKDLVTNDTGLNGPINGSFSIQDTFSFVVPYSGNHTNNGTTGPIKTAYPVKKDQKSTVKINSLINATPLNSYGDEGIGVFDALGLNYNFKSNQERLPSRTDQIFVYGIVSPNELRSAKSSADSTGSDTKVNWSNTQSRYLPVPYNYSEGIIDADGFKRPENRGASVTTFSGLKSIAPDGFANSIANFSVGLKAGIDPNPVMSGKKANYGAVVLTRGGVVRLNFNPGNDSLLSTTDNNIAPISFSFTPFTAAESAVDLTTFKEVTYNQESGLWSYIFDSSLKPSHDGKQTPVTDNMGFSVITVSRTGIELNQDQATTTLDVAPSALAVQSGIQSTTQTLTGVLPLSEEFSAVIAKDSDQNKIDIYKNNNGLFEIDTQLSNSVATNNGGLAPSYTENRVDAWGKVEFADNSVLQARNLVDKTVDEIINTPEILNSFFRFTPAFEDQKATLVATKQSDTSLSVSPRIQFLDGNFYDLNSTIAGVPLNIGFPSRVFAGFAALPAWVIPVSVGSSVGILFILLVLGLGIGIPMYRVRKLQDASFVNVFKKVDTLTTAVGSVYKKIITQTGVVKKAPSALKAANPSVKKPAAFLKPPVQPPSKPEGEQKAVEVKSEETKS
notes: P110 of the nap particle adhesion complex, Mycoplasma genitalium G37; endogenous and not truncated, with stalk, transmembrane helix and intracellular region (residues up to 1053 are spoken of); The same endogenous protein was also studied in the nap particle purified from M. genitalium; that purification is described in an earlier publication of the authors; also called P110 adhesin of the nap …
In the case of B1, the binding result is given as “binds”.
